The values that follow come from article PMC8286825 (Biochemical Journal, 2021).

What all share (experiment): AUC
Data set [1] concerns the molecule itself.
Data set [2] deals with A6NHR9.
For data set [3], the target named is A6NHR9. The source holds these as a separate data set.
For data set [4], the target named is A6NHR9. The source holds these as a separate data set.
Data set [5] concerns the target A6NHR9. The source holds these as a separate data set.
Data set [6] concerns the target A6NHR9. The source holds these as a separate data set.

Read-outs that look alike come from different tables or passages of the source.

B1: UBL-containing SMCHD1 ATPase (residues 25–702) (domain or fragment, human, UniProt A6NHR9 25-702, looked up)
chain: HRTVYLFDRREKESELGDRPLQVGERSDYAGFRACVCQTLGISPEEKFVITTTSRKEITCDNFDETVKDGVTLYLLQSVNQLLLTATKERIDFLPHYDTLVKSGMYEYYASEGQNPLPFALAELIDNSLSATSRNIGVRRIQIKLLFDETQGKPAVAVIDNGRGMTSKQLNNWAVYRLSKFTRQGDFESDHSGYVRPVPVPRSLNSDISYFGVGGKQAVFFVGQSARMISKPADSQDVHELVLSKEDFEKKEKNKEAIYSGYIRNRKPSDSVHITNDDERFLHHLIIEEKEKDSFTAVVITGVQPEHIQYLKNYFHLWTRQLAHIYHYYIHGPKGNEIRTSKEVEPFNNIDIEISMFEKGKVPKIVNLREIQDDMQTLYVNTAADSFEFKAHVEGDGVVEGIIRYHPFLYDRETYPDDPCFPSKLKDEDDEDDCFILEKAARGKRPIFECFWNGRLIPYTSVEDFDWCTPPKKRGLAPIECYNRISGALFTNDKFQVSTNKLTFMDLELKLKDKNTLFTRILNGQEQRMKIDREFALWLKDCHEKYDKQIKFTLFKGVITRPDLPSKKQGPWATYAAIEWDGKIYKAGQLVKTIKTLPLFYGSIVRFFLYGDHDGEVYATGGEVQIAMEPQALYDEVRTVPIAKLDRTVAEKAVKKYVEDEMARLPDRLSVTWPEGDE
Usually stoichiometry N stands for the number of molecules, sites or subunits per partner or assembly. With B1, the “stoichiometry N” value in data set [1] came to 2. The Monomer (%) is 57.6% in data set [2]; 88.2% in data set [3]; 76.8% in data set [4]; 61.5% in data set [5]; 53.4% in data set [6].
